Results reported in article PMC4537179.

Columns and labels:
Assay in all cases: SPR
c-Myc bHLH-ZIP = c-Myc bHLH-ZIP (Homo sapiens (human), UniProt P01106-1 353-437)
Max(S) = Max(S) (UniProt P61244-2 1-151)
Max(L) = Max(L) (UniProt P61244 1-160)

c-Myc bHLH-ZIP, sequence (P01106 368-452): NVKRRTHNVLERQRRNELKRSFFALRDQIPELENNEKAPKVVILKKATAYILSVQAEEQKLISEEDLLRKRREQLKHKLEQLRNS

B1: biotinylated E-box oligonucleotide (dsDNA)
DNA 1: TGAAGCAGACCACGTGGTCGTCTTCA
DNA 2: TGAAGACGACCACGTGGTCTGCTTCA
Q: What does the source list for B1?
A: binding result (c-Myc bHLH-ZIP): no binding; binding result (Max(S)): no binding; binding result (Max(L)): binds
